The text below walks through data of patent US6071715, “Nucleic acids encoding novel proteins which bind to retinoblastoma protein” (Board of Regents, The University of Texas System, dated 2000).

For this experiment, the target named is p56Rb, carboxyl terminus of the Rb protein (Homo sapiens (Human), UniProt P06400). Kind of experiment: native polyacrylamide gel of the purified proteins, silver stain.

B1: chimeric p48 protein containing a modified C-terminus, encoded by plasmid pET-48NB (other)
chain: MADKEAAFDDAVEERVINEEYKIWKKNTPFLYDLVMTHALEWPSLTAQWLPDVTRPEGKDFSIHRLVLGTHTSDEQNHLVIASVQLPNDDAQFDASHYDSEKGEFGGFGSVSGKIEIEIKINHEGEVNRARYMPQNPCIIATKTPSSDVLVFDYTKHPSKPDPSGECNPDLRLRGHQKEGYGLSWNPNLSGHLLSASDDHTICLWDISAVPKEGKVVDAKTIFTGHTAVVEDVSWHLLHESLFGSVADDQKLMIWDTRSNNTSKPSHSVDAHTAEVNCLSFNPYSEFILATGSADKTVALWDLRNLKLKLHSFESHKDEIFQVQWSPHNETILASSGTDRRLNVWDLSKIGEEQSPEDAEDGPPELLFIHGGHTAKISDFSWNPNEPWVICSVSEDNIMQVWQMAENIYNDEDPEGSVDPAANKARKEAELAAANAEQ
Regarding B1, the binding result is “binds”.
